The target in the assay is cohesin-NIPBL^c subcomplex containing SMC1, SMC3, RAD21 and NIPBL^c (no SA1) (human, UniProt Q14683;Q9UQE7;O60216;Q6KC79). Description: reconstitution by mixing, AFM imaging in air.

The results in this text go back to PMC10656236 (The Journal of Biological Chemistry, 2023).

Sequence of cohesin-NIPBL^c subcomplex containing SMC1, SMC3, RAD21 and NIPBL^c (no SA1) (Q14683 whole entry, chain 1 of 4): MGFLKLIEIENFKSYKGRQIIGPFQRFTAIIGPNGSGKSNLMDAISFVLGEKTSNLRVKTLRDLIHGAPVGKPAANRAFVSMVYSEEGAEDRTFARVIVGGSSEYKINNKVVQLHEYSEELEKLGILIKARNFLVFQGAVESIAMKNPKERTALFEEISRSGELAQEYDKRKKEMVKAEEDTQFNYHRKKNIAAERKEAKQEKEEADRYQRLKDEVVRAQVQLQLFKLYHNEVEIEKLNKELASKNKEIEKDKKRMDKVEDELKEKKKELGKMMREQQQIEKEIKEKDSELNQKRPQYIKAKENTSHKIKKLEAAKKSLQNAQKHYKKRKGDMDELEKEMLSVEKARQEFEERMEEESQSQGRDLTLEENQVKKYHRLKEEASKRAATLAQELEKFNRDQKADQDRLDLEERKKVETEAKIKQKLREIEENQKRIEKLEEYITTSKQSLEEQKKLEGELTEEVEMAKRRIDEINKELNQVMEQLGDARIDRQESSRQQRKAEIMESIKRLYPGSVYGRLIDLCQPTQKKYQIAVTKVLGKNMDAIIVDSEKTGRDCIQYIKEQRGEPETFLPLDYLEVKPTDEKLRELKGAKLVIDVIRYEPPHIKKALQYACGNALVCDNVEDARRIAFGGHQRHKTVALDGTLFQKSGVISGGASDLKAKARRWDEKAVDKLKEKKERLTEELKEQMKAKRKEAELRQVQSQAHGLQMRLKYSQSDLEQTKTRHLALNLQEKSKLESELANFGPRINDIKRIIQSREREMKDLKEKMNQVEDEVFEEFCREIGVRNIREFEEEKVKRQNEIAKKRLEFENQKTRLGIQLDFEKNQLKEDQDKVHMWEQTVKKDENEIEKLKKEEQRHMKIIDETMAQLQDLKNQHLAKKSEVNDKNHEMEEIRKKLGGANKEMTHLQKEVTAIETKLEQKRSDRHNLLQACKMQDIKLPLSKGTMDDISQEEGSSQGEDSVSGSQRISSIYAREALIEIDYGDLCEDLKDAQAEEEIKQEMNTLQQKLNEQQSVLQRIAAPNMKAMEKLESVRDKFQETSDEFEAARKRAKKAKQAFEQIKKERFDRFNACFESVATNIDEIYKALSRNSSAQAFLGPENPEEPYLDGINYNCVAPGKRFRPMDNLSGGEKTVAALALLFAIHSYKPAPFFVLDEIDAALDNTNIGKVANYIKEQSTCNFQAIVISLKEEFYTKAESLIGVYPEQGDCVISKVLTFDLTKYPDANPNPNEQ
Sequence of cohesin-NIPBL^c subcomplex containing SMC1, SMC3, RAD21 and NIPBL^c (no SA1) (Q9UQE7 whole entry, chain 2 of 4): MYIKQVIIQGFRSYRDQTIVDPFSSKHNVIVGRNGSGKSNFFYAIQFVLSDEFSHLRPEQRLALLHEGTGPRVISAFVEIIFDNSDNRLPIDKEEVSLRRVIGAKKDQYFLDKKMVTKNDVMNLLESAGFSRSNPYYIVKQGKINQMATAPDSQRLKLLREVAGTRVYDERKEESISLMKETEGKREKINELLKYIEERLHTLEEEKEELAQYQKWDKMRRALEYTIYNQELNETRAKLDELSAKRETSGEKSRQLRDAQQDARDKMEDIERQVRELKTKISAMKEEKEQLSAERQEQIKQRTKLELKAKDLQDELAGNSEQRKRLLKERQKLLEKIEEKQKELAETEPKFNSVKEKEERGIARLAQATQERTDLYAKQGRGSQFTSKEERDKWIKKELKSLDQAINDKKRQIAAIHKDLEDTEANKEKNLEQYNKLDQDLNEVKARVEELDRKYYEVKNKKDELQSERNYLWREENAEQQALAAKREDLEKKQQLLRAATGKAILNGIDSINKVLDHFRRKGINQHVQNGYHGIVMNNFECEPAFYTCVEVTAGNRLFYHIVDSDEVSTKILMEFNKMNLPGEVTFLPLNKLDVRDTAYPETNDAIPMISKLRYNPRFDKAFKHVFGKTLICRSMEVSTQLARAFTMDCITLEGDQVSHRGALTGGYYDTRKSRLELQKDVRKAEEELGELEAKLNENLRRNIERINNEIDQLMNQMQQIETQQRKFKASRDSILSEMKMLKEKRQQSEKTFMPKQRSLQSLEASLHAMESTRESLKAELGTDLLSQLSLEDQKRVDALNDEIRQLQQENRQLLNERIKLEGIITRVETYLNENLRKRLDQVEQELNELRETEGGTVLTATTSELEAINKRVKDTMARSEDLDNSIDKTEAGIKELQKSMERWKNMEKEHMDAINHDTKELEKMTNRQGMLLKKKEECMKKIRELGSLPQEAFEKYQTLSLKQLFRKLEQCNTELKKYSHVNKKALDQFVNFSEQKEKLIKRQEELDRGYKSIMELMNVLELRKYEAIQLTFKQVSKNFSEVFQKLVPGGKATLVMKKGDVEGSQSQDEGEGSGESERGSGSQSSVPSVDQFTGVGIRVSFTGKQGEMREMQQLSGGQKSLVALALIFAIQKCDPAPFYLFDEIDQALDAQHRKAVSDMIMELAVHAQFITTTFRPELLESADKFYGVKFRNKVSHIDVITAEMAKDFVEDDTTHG
Sequence of cohesin-NIPBL^c subcomplex containing SMC1, SMC3, RAD21 and NIPBL^c (no SA1) (O60216 whole entry, chain 3 of 4): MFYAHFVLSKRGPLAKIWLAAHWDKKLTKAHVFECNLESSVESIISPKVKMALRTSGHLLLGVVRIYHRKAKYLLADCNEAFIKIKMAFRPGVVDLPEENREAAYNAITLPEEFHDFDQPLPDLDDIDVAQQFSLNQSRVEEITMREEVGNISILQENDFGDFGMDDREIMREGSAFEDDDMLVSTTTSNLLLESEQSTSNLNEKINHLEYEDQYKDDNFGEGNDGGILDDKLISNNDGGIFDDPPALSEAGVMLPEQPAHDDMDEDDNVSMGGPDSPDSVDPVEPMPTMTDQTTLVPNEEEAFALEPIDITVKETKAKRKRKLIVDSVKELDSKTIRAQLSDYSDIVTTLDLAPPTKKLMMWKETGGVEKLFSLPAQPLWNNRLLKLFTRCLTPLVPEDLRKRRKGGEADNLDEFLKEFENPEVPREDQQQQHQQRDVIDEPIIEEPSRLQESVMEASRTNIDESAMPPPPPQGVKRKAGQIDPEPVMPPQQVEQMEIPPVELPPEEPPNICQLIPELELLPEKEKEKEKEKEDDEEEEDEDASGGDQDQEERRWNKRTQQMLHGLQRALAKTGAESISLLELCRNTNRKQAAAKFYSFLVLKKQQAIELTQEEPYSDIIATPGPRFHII
Sequence of cohesin-NIPBL^c subcomplex containing SMC1, SMC3, RAD21 and NIPBL^c (no SA1) (Q6KC79 1163-2804, chain 4 of 4): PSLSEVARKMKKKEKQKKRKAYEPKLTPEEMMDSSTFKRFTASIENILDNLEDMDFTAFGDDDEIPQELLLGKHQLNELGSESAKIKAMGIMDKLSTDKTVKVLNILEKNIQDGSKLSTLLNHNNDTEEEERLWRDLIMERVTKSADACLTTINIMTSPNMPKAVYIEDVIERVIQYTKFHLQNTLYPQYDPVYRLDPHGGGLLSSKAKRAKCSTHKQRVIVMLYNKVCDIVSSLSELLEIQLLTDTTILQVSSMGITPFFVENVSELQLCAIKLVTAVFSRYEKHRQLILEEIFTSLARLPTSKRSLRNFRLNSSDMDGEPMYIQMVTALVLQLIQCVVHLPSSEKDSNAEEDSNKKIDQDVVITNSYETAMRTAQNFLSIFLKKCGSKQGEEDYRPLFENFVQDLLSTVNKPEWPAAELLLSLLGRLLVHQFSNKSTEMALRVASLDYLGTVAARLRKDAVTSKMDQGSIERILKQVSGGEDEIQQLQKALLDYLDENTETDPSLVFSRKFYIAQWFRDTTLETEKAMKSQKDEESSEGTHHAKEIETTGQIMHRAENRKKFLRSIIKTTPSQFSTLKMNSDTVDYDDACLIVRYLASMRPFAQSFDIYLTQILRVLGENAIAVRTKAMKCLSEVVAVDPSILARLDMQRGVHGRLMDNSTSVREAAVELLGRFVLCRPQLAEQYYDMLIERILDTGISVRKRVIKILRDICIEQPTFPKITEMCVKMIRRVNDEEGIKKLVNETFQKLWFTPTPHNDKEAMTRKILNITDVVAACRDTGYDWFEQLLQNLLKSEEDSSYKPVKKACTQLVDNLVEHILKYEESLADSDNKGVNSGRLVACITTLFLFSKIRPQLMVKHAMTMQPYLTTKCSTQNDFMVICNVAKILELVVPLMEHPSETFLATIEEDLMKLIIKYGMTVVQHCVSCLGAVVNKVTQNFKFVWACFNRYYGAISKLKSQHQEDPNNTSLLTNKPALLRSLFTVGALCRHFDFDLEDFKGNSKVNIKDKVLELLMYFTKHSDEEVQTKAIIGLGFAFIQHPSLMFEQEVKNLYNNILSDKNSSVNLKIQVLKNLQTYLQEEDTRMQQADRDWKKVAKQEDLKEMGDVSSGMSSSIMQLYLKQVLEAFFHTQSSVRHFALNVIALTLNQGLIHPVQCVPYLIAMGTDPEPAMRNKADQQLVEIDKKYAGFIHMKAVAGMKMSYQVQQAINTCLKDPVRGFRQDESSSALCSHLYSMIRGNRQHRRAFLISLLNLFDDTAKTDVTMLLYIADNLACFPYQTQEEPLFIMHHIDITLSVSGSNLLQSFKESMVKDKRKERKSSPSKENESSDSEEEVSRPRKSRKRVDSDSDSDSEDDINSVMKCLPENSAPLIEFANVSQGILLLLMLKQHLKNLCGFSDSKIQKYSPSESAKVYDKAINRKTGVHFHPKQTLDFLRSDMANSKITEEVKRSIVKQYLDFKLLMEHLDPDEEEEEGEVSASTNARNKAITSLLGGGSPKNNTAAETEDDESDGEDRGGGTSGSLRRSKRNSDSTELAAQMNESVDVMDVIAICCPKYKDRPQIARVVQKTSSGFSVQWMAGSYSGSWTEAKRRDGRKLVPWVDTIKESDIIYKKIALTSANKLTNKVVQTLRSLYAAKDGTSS

B1: SA1dc (SA1 1-1054 AAs, without its C terminus) (domain or fragment)
chain: MITSELPVLQDSTNETTAHSDAGSELEETEVKGKRKRGRPGRPPSTNKKPRKSPGEKSRIEAGIRGAGRGRANGHPQQNGEGEPVTLFEVVKLGKSAMQSVVDDWIESYKQDRDIALLDLINFFIQCSGCRGTVRIEMFRNMQNAEIIRKMTEEFDEDSGDYPLTMPGPQWKKFRSNFCEFIGVLIRQCQYSIIYDEYMMDTVISLLTGLSDSQVRAFRHTSTLAAMKLMTALVNVALNLSIHQDNTQRQYEAERNKMIGKRANERLELLLQKRKELQENQDEIENMMNSIFKGIFVHRYRDAIAEIRAICIEEIGVWMKMYSDAFLNDSYLKYVGWTLHDRQGEVRLKCLKALQSLYTNRELFPKLELFTNRFKDRIVSMTLDKEYDVAVEAIRLVTLILHGSEEALSNEDCENVYHLVYSAHRPVAVAAGEFLHKKLFSRHDPQAEEALAKRRGRNSPNGNLIRMLVLFFLESELHEHAAYLVDSLWESSQELLKDWECMTELLLEEPVQGEEAMSDRQESALIELMVCTIRQAAEAHPPVGRGTGKRVLTAKERKTQIDDRNKLTEHFIITLPMLLSKYSADAEKVANLLQIPQYFDLEIYSTGRMEKHLDALLKQIKFVVEKHVESDVLEACSKTYSILCSEEYTIQNRVDIARSQLIDEFVDRFNHSVEDLLQEGEEADDDDIYNVLSTLKRLTSFHNAHDLTKWDLFGNCYRLLKTGIEHGAMPEQIVVQALQCSHYSILWQLVKITDGSPSKEDLLVLRKTVKSFLAVCQQCLSNVNTPVKEQAFMLLCDLLMIFSHQLMTGGREGLQPLVFNPDTGLQSELLSFVMDHVFIDQDEENQSMEGDEEDEANKIEALHKRRNLLAAFSKLIIYDIVDMHAAADIFKHYMKYYNDYGDIIKETLSKTRQIDKIQCAKTLILSLQQLFNELVQEQGPNLDRTSAHVSGIKELARRFALTFGLDQIKTREAVATLHKDGIEFAFKYQNQKGQEYPPPNLAFLEVLSEFSSKLLRQDKKTVHSYLEKFLTEQMMERREDVWLPLISYRNSLVT
As to B1, the binding result is recorded as “binds”.
